Results taken from the supplement of paper PMC9116672.
± gives the standard deviation of the averaged measurements or the uncertainty stated by the source.

How the values were obtained:
[1] = duplex melting temperature (HRM, EvaGreen); higher = more stable duplex
Experimental: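 Listed DNA strand annealed 1:1 with its complementary strand (95 °C 5 min, 0.1 °C/s to 20 °C). Melted in 1x NNE buffer (500 mM NaCl, 10 mM Na2HPO4, 1 mM EDTA, pH 7.0) with 1x EvaGreen on a LightCycler96 (37 to 97 °C, 0.1 °C/s). Tm is the peak of -dF/dT at the stated total duplex concentration; 4 replicates are averaged. PS oligos are non-stereospecific (Rp/Sp mixtures).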

[2] = duplex formation free energy ΔG50 (Van't Hoff fit of HRM Tm); higher = less stable duplex; details: temperature for dG: 50 °C, NaCl: 500 mM (unadjusted)
Experimental: (§1)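 Duplex of the listed DNA strand with its complement, in 1x NNE buffer (500 mM NaCl, pH 7.0) with 1x EvaGreen. ΔH and ΔS come from a Van't Hoff linear fit of 1/Tm against ln(CT/4) over 1-20 uM, using HRM Tm values.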

[3] = duplex formation enthalpy ΔH (Van't Hoff fit of HRM Tm); higher = less exothermic duplex formation; details: temperature for dG: 50 °C, NaCl: 500 mM (unadjusted)
Experimental: as §1

[4] = duplex formation entropy ΔS (Van't Hoff fit of HRM Tm); higher = smaller entropy loss on duplex formation; details: temperature for dG: 50 °C, NaCl: 500 mM (unadjusted)
Experimental: as §1

[5] = duplex concentration 1 µM, backbone: PO-PO (both strands phosphodiester DNA)
[6] = duplex concentration 1 µM, backbone: PS-PS (both strands fully phosphorothioate)
[7] = duplex concentration 2.5 µM, backbone: PO-PO (both strands phosphodiester DNA)
[8] = duplex concentration 2.5 µM, backbone: PS-PO (listed strand fully phosphorothioate, complement phosphodiester)
[9] = duplex concentration 2.5 µM, backbone: PS-PS (both strands fully phosphorothioate)
[10] = duplex concentration 5 µM, backbone: PO-PO (both strands phosphodiester DNA)
[11] = duplex concentration 5 µM, backbone: PS-PO (listed strand fully phosphorothioate, complement phosphodiester)
[12] = duplex concentration 5 µM, backbone: PS-PS (both strands fully phosphorothioate)
[13] = duplex concentration 7.5 µM, backbone: PO-PO (both strands phosphodiester DNA)
[14] = duplex concentration 7.5 µM, backbone: PS-PO (listed strand fully phosphorothioate, complement phosphodiester)
[15] = duplex concentration 7.5 µM, backbone: PS-PS (both strands fully phosphorothioate)
[16] = duplex concentration 10 µM, backbone: PO-PO (both strands phosphodiester DNA)
[17] = duplex concentration 10 µM, backbone: PS-PO (listed strand fully phosphorothioate, complement phosphodiester)
[18] = duplex concentration 10 µM, backbone: PS-PS (both strands fully phosphorothioate)
[19] = duplex concentration 15 µM, backbone: PO-PO (both strands phosphodiester DNA)
[20] = duplex concentration 15 µM, backbone: PS-PO (listed strand fully phosphorothioate, complement phosphodiester)
[21] = duplex concentration 15 µM, backbone: PS-PS (both strands fully phosphorothioate)
[22] = duplex concentration 20 µM, backbone: PO-PO (both strands phosphodiester DNA)
[23] = duplex concentration 20 µM, backbone: PS-PO (listed strand fully phosphorothioate, complement phosphodiester)
[24] = duplex concentration 20 µM, backbone: PS-PS (both strands fully phosphorothioate)
[25] = backbone: PO-PO (both strands phosphodiester DNA)
[26] = backbone: PS-PO (listed strand fully phosphorothioate, complement phosphodiester)
[27] = backbone: PS-PS (both strands fully phosphorothioate)

Row | Sequence | duplex melting temperature [1, 5] | duplex melting temperature [1, 6] | duplex melting temperature [1, 7] | duplex melting temperature [1, 8] | duplex melting temperature [1, 9] | duplex melting temperature [1, 10] | duplex melting temperature [1, 11] | duplex melting temperature [1, 12] | duplex melting temperature [1, 13] | duplex melting temperature [1, 14] | duplex melting temperature [1, 15] | duplex melting temperature [1, 16] | duplex melting temperature [1, 17] | duplex melting temperature [1, 18] | duplex melting temperature [1, 19] | duplex melting temperature [1, 20] | duplex melting temperature [1, 21] | duplex melting temperature [1, 22] | duplex melting temperature [1, 23] | duplex melting temperature [1, 24] | duplex formation free energy ΔG50 [2, 25] | duplex formation free energy ΔG50 [2, 26] | duplex formation free energy ΔG50 [2, 27] | duplex formation enthalpy ΔH [3, 25] | duplex formation enthalpy ΔH [3, 26] | duplex formation enthalpy ΔH [3, 27] | duplex formation entropy ΔS [4, 25] | duplex formation entropy ΔS [4, 26] | duplex formation entropy ΔS [4, 27] | duplex melting temperature ([1]; duplex concentration 1 µM, backbone: PS-PO (listed strand fully phosphorothioate, complement phosphodiester))
1 | TGCCATGTTGAAAACC | 61.32 ± 0.21 °C | 44.3 ± 0.54 °C | 63.56 ± 0.48 °C | 56.23 ± 0.2 °C | 46.98 ± 0.17 °C | 65.51 ± 0.22 °C | 58.37 ± 0.066 °C | 48.71 ± 0.25 °C | 66.6 ± 0.21 °C | 59.53 ± 0.1 °C | 49.82 ± 0.18 °C | 67.59 ± 0.15 °C | 60.34 ± 0.13 °C | 50.73 ± 0.22 °C | 68.82 ± 0.18 °C | 61.44 ± 0.11 °C | 51.73 ± 0.34 °C | 69.71 ± 0.33 °C | 62.27 ± 0.073 °C | 52.86 ± 0.13 °C | -12.4 ± 0.13 kcal/mol | -10.63 ± 0.058 kcal/mol | -8.447 ± 0.02 kcal/mol | -79.2 ± 2.6 kcal/mol | -76.1 ± 1.9 kcal/mol | -74 ± 2.4 kcal/mol | -207 ± 7.6 cal/mol/K | -203 ± 5.8 cal/mol/K | -203 ± 7.4 cal/mol/K | –
2 | CGACATGTATGGCACAG | 64.55 ± 0.5 °C | 50.2 ± 0.26 °C | 67.76 ± 0.17 °C | 60.82 ± 0.11 °C | 53.07 ± 0.18 °C | 69.89 ± 0.28 °C | 62.71 ± 0.088 °C | 55.02 ± 0.11 °C | 70.97 ± 0.12 °C | 63.78 ± 0.073 °C | 56.02 ± 0.081 °C | 71.86 ± 0.14 °C | 64.547 ± 0.024 °C | 56.75 ± 0.13 °C | 73.04 ± 0.17 °C | 65.56 ± 0.091 °C | 57.63 ± 0.092 °C | 73.85 ± 0.16 °C | 66.343 ± 0.048 °C | 58.35 ± 0.083 °C | -13.17 ± 0.12 kcal/mol | -11.9 ± 0.052 kcal/mol | -9.881 ± 0.049 kcal/mol | -77.2 ± 2 kcal/mol | -84.2 ± 1.3 kcal/mol | -79.1 ± 2.7 kcal/mol | -198 ± 5.8 cal/mol/K | -224 ± 3.8 cal/mol/K | -214 ± 8.2 cal/mol/K | 58.38 ± 0.3 °C
